Test results published in doi:10.1101/2022.06.15.496315.
Where two headings read alike, the source gives them in different places.

Columns and labels:
[1] = biological target: ZIKV envelope protein (E) in infected Vero cells (Zika virus (MR766 strain)); test: proximity ligation
[2] = biological target: ZIKV envelope protein (E) in infected Vero cells (Zika virus (MR766 strain)); test: proximity ligation; remark: listed apart in the source

“naturally occurring dynein (cytoplasmic dynein-1) of Vero cells, detected by its heavy chain (natural protein)” was tested. Which PLA dots per cell (dots per cell) [1] did it give?
Its PLA dots per cell (dots per cell) is less than 1.

What about the PLA dots per cell (dots per cell) [2] of the same substance?
Its PLA dots per cell (dots per cell) is greater than 6.
